Experimental data published in US20090317364A1, “NOVEL COMPOSITIONS FOR PREVENTION AND TREATMENT OF MASTITIS AND METRITIS” (priority 2006, published 2009).

Assays:
[1] = tested on: Staphylococcus. aureus; assay: Lab trials 2b (in vitro) for synergy, components added on top of the culture; type: cell-based
Description: b) Lab trials 2b (in vitro) for synergy.

[2] = tested on: Staphylococcus. aureus; assay: Lab trials 2a (in vitro) for synergy, components added in wells for diffusion; type: cell-based
Description: a) Lab trials 2a (in vitro) for synergy.

B1: Serratiopeptidase (protein, UniProt P07268 17-487, looked up)
Serralysin: AATTGYDAVDDLLHYHERGNGIQINGKDSFSNEQAGLFITRENQTWNGYKVFGQPVKLTFSFPDYKFSSTNVAGDTGLSKFSAEQQQQAKLSLQSWADVANITFTEVAAGQKANITFGNYSQDRPGHYDYGTQAYAFLPNTIWQGQDLGGQTWYNVNQSNVKHPATEDYGRQTFTHEIGHALGLSHPGDYNAGEGNPTYRDVTYAEDTRQFSLMSYWSETNTGGDNGGHYAAAPLLDDIAAIQHLYGANLSTRTGDTVYGFNSNTGRDFLSTTSNSQKVIFAAWDAGGNDTFDFSGYTANQRINLNEKSFSDVGGLKGNVSIAAGVTIENAIGGSGNDVIVGNAANNVLKGGAGNDVLFGGGGADELWGGAGKDIFVFSAASDSAPGASDWIRDFQKGIDKIDLSFFNKEAQSSDFIHFVDHFSGAAGEALLSYNASNNVTDLSVNIGGHQAPDFLVKIVGQVDVATDFIV
notes: proteolytic enzyme isolated from the non-pathogenic Enterobacteria Serratia E15, CAS 37312-62-2
Inhibition zone In diameter cm for Staphylococcus. aureus [1]: 0.61 cm | Inhibition zone diameter In cm for Staphylococcus. aureus [2]: 0.5 cm
